Measurements taken from US20250129153A1 (Johns Hopkins, published 2025).

B1: mAb20 (antibody, mouse IgG1, kappa, V domains shown)
VH: QIQLVQSGPELKKPGETVKISCKASGYIFTNYPMHWVKQAPGKGLKWMGWINTYSGVPTHADDFKGRFAFSLETSANSAFLQINNLKNEDTATYFCTRSRITPTGGYAMDYWGQGTSVTVSS
VL: DVVMTQTPLSLPVSLGDQASISCRSSQSLVHSNGNTYLHWYLQKPGQSPNLLISKVSNRFSGVPERFSGSGSGTDFTLKISRVEAEDLGVYFCSQNTHVPWTFGGGTKLEIKR
notes: Validated anti-CTD control antibody; also called anti-CTD mAb20; mAb20-A647 (mAb20 labeled with a fluorescent A647 secondary antibody)
B2: chimeric mAb20 (mouse/human) (antibody, V domains shown)
VH: B1 VH
VL: DVVMTQTPLSLPVSLGDQASISCRSSQSLVHSNGNTYLHWYLQKPGQSPNLLISKVSNRFSGVPERFSGSGSGTDFTLKISRVEAEDLGVYFCSQNTHVPWTFGGGTKLEIK
notes: also called mouse/human chimeric mAb20
B3: mAb43 (antibody, V domains shown)
VH: EVQLQQSGPELVKPGASVKIACKASGYTFTGYYMKWVKQSLGKSLEWIGDINPNNGGTNYNQHFKGKATLTVDESSSTAYMELRSLTSEDSAVYYCARGVDWIFAFWGQGTLVTVSP
VL: SIVMTQTPKFLPVSAGDRVTMTCKASQSVGNKVAWYQQKPGQSPKLLIYYATNRYTGVPDRFTGSGSGTDFTFTISSVQVEDLAVYFCQQHYSSPWTFGGGTKLEIK
notes: Hybridoma monoclonal antibody from a ZnT8-proteoliposome-immunized NOD mouse; also called mouse mAb43; anti-TMD mAb

Assays:
[1] = target: human CTD-His (cytosolic C-terminal domain of ZnT8, C-terminal His-tag) (human) (UniProt Q8IWU4); test: ELISA, mAb titration on CTD (CTD-His) captured on a plate
[2] = target: T1, human ZnT8-His (full-length ZnT8, isoform-2, C-terminal His-tag) (human, UniProt Q8IWU4-2 1-320); test: ELISA titration to ZnT8 proteoliposomes, hyperbolic fit (printed as binding affinity)
T1 construct: mature; Expressed in 293-F cells; Used detergent-solubilized on nickel-coated plates, or purified and reconstituted into DOPC/DOPE/DOPG proteoliposomes (mixed orientations); Described as a homodimer; also called flZnT8; detergent-solubilized ZnT8; not shown: C-terminal His-tag
T1 sequence (looked up): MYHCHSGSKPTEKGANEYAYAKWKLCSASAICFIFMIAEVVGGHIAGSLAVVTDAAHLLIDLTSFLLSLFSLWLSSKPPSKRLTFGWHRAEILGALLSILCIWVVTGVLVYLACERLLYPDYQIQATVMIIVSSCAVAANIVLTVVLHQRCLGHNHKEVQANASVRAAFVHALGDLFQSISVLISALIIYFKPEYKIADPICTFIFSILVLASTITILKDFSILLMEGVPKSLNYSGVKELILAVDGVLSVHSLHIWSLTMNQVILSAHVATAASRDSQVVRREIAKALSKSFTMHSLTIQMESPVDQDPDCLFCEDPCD
Method: (§1) Comparative ELISAs. For proteoliposome-based ELISA, 4 μg proteoliposomes (containing 5% human ZnT8-His by weight) diluted in 100 μl PBS were added to each well of a high-binding 96-well plate, and incubated overnight at 4° C. The passively immobilized proteoliposomes were blocked with 5% BSA, and then tested with hybridoma culture supernatants. For solution-based ELISA, 293-F cells expressing human ZnT8-His or CTD-His were mechanically lysed using a microfluidizer, and cleared of cell debris by ultracentrifugation. Then, 0.2 μg human ZnT8-His from detergent-solubilized cell membrane or 0.1 μg CTD-His from cell lysate in 100 μl PBS were immobilized to each well of a nickel-coated 96-well plate via the C-terminal His-tag. The immobilized protein was blocked by 5% BSA, and then tested with mouse sera in 3-fold serial dilutions or hybridoma culture supernatants. Bound serum antibodies were detected by an HRP-conjugated goat anti-mouse IgG secondary antibody (1:3000) on a Flexstation-3 microplate reader.
Lymphocytes responsible for the production of antibodies to highly conserved epitopes of ZnT8 may be eliminated during the development of self-tolerance that prevents lymphocytes from attacking self-antigens. […]

[3] = target: T1, human ZnT8-His (full-length ZnT8, …); test: ELISA, mAb titration on detergent-solubilized flZnT8 (ZnT8-His) captured on a plate
Source text: FIGS. 1A-1G show induction of anti-TMD antibodies and biochemical characterization. […] The TMD is imbedded in the lipid bilayer while the CTD is extended into the cytoplasm. […] Error bars are standard errors from 4 ZnT8-KO or 4 NOD mice, *p<0.01 (n=4). […] Note, ZnT8 in proteoliposomes adopted mixed transmembrane orientations exposing either TMD or CTD to antibody binding as indicated. Solid lines are least-square fits of binding curves to a hyperbolic function with r2>0.98.
as §1, with “The immobilized protein was blocked by 5% BSA, and then tested with mouse sera in 3-fold serial dilutions or hybridoma culture supernatants.” left out

[4] = target: T2, mouse ZnT8 (endogenous, in mouse pancreatic islets and β-cells) (mouse, UniProt Q8BGG0 1-367); test: flow cytometry of live dispersed mouse pancreatic cells, chimeric mAb20 and PE anti-human IgG, DCV gate
T2 construct: whole, on cells
T2 sequence (looked up): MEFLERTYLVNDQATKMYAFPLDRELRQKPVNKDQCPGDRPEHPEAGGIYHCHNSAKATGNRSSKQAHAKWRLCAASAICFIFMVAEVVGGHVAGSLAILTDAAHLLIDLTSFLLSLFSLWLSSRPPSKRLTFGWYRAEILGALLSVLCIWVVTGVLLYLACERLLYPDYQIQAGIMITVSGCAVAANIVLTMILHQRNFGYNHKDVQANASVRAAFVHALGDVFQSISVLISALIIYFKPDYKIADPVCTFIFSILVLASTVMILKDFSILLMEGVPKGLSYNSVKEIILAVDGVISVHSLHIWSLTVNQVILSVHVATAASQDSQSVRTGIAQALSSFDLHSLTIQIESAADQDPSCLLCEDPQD
Method: Tissue dispersion and pancreatic cell labeling. Excised pancreata from C57BL/6 mice were cut into small pieces, minced, and washed with HBSS on a 70-μm strainer to remove hematopoietic cells. The washed tissue pellets were resuspended in accutase and incubated at 37° C. for 30 min. DCV was added to stain DNA of live cells. The dispersed cells were filtrated through the strainer by a gentle spin at 1200 rpm for 2 min. The remaining tissue pellets underwent additional cycles of accutase digestion and cell filtration to achieve a complete cell dispersion. The dispersed cells were pooled and washed with cold cell culture medium with DNase and trypsin/chymotrypsin inhibitors. At this point, cell viability, measured by trypan blue exclusion, was typically over 80%. […] Chimeric mAb20 was used as an isotype control.
Fluorescence activated cell sorting and confocal microscopy analysis. The labeled pancreatic cells were analyzed and sorted immediately on a MoFlo XDP cell sorter (Beckman Coulter) equipped with a 405 and 561 nm laser. Data were collected on forward scatter, side scatter, and 440 nm and 578 nm fluorescence channels. Cells gated on forward and side scatter yielded >1 million single-cell counting events. The sorted cells in R0 or R1 gate were deposited on the glass bottom of a microwell dish by a gentle centrifugation (1200 rpm, 1 min). […]

[5] = target: T2, mouse ZnT8 (endogenous, in mouse …); test: immunofluorescence of dispersed, fixed and permeabilized mouse islet cells
[6] = target: T3, human ZnT8 (endogenous, in EndoC-βH1 cells and human pancreatic islets) (human, UniProt Q8IWU4 1-369); test: imaging quantification, live EndoC-βH1 cells, 8 °C (cell surface binding)
T3 construct: also called cell surface ZnT8; endogenous ZnT8
T3 sequence: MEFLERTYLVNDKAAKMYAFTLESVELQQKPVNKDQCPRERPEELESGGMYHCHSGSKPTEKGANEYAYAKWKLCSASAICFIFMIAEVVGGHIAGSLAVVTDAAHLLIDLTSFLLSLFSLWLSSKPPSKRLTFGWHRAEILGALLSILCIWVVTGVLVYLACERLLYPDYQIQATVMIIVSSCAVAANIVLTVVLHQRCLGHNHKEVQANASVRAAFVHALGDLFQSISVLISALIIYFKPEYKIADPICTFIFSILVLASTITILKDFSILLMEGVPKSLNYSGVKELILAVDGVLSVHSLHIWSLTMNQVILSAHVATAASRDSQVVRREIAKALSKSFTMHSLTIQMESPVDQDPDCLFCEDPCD
Method: (§2) For intracellular IF labeling, live cells were washed with a high glucose (20 mM) Krebs buffer, fixed using a flowcytometry fixation buffer for 20 min at RT, washed again using PBS, permeabilized with flowcytometry permeabilization buffer for 20 min at RT, blocked with PBS plus 5% BSA for 30 min, and then exposed to mAb43 (1:1000), mAb20 (1:1000), anti-CD71 (1:200) or anti-Na+/K+ ATPase (1:200) antibody for 2 hr at room temperature. Secondary antibody immunolabeling, DAPI counterstain and immunofluorescence imaging were performed using the same procedure as above. For experiments with wild-type INS-1E cells or ZnT8-KO INS-1E cells (13), cells were grown in RMPI 1640 medium supplied with 10% (v/v) fetal bovine serum (FBS), 100 units/ml penicillin, 100 μg/ml streptomycin, 10 mM HEPES, 2 mM glutamine, 1 mM sodium pyruvate and 50 μM β-ME. Immunofluorescence labeling and imaging followed the same procedure as above.
(§3) To track cell-surface capture of mAb43 and the ensuing ZnT8-mediated mAb43 endocytosis, a fluorescent A647 secondary antibody to label mAb20 and mAb43, and a CellMask green stain were used to demarcate the cell boundary. Live EndoC-βH1 cells were monitored for antibody surface binding and internalization. mAb43-A647 was rapidly internalized at 37° C. whereas mAb20-A647 exposure yielded no detectable signal (FIG. 5A). […]

[7] = target: T1, human ZnT8-His (full-length ZnT8, …); test: ELISA titrations
[8] = target: T4, rat ZnT8 (endogenous, in INS-1E cells) (rat, UniProt P0CE46 1-368); test: immunofluorescence of live INS-1E cells; labeling abolished in ZnT8-knockout INS-1E cells
T4 construct: whole, on cells; also called ZnT8 in rodent β-cells
T4 sequence (looked up): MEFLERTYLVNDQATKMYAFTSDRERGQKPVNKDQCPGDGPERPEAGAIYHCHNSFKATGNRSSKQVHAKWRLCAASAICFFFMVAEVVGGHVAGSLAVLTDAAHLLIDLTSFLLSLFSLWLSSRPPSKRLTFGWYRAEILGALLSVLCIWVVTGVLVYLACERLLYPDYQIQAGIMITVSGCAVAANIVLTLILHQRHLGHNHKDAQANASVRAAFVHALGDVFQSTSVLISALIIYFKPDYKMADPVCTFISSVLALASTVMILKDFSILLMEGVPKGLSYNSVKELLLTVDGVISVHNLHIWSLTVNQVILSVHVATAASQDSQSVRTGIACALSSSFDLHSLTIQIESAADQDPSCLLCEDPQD

[9] = target: T3, human ZnT8 (endogenous, in EndoC-βH1 …); test: imaging quantification, live EndoC-βH1 cells, 37 °C (surface binding and uptake)
Method: as §2, §3

[10] = target: T3, human ZnT8 (endogenous, in EndoC-βH1 …); test: cell-based or functional assay

Binder	EC50 (read off the curve) [1] [nM]	Kd [2] [nM]	EC50 (read off the curve) [3] [nM]	binding result [4]	binding result [5]	fold increase of total mAb43-A647 IF-labeling by glucose stimulation (20 mM against 2 mM) at 8 °C [6] [fold]	fold increase of mAb43 reactivity, ZnT8 in proteoliposomes against detergent-solubilized ZnT8 [7] [fold]	binding result [8]	fold increase of total mAb43-A647 IF-labeling by glucose stimulation (20 mM against 2 mM) at 37 °C [9] [fold]	net mAb43-A647 uptake (difference in IF signals between 37 °C and 8 °C), fold increase by glucose stimulation (20 against 2 mM) [10] [fold]
B1	0.7	0.57	~2							
B2				no binding						
B3		0.42	~2		binds	15	6.29	binds	22.1	30.9
